Data set [1] addresses Rel^NTD (purified, in solution) (Bacillus subtilis 168, UniProt O54408 1-391). Put plainly: ITC. For orientation: ITC needs no label: the signal is the heat of the interaction.
Data set [2] concerns the molecule itself. Put plainly: SEC-MALS. A general note: SEC sorts molecules by how far they enter the pores of the column.

This is an account of results in doi:10.1101/2020.08.27.268672 (bioRxiv, 2020).

What is called Kd is the equilibrium constant for the complex coming apart. Higher therefore signals lower affinity. As usually defined, the stoichiometry N is the number of molecules, sites or subunits per partner or assembly.

Sequence of Rel^NTD (purified, in solution) (O54408 1-391): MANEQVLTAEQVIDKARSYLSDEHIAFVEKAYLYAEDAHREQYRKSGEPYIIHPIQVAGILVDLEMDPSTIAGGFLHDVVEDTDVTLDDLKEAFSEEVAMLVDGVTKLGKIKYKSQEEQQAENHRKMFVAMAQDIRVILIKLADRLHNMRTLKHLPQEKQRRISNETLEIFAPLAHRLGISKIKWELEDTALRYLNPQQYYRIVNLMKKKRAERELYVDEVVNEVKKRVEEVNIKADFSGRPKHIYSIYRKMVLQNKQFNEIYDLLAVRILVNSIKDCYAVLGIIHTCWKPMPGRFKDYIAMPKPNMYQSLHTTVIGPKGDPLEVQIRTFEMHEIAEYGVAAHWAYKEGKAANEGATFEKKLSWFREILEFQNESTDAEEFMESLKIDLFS

B1: DarB (natural protein, Bacillus subtilis 168)
chain: ISLQSDQLLEATVGQFMIEADKVAHVQVGNNLEHALLVLTKTGYTAIPVLDPSYRLHGLIGTNMIMNSIFGLERIEFEKLDQITVEEVMLTDIPRLHINDPIMKGFGMVINNGFVCVENDEQVFEGIFTRRVVLKELNKHIRSLNK
In data set [1], B1 gave a Kd of 650 nM. Further, the results for the “stoichiometry N” value in data set [1] and in data set [2] were 1 and 2, respectively.
